Experimental data from patent US20230287081A1 (NANTONG YICHEN BIOPHARMA, published 2023).
Blank lines part the entries; values can stand above or below the binder they belong to.

Legend:
[1] = biological target: T1, mPDL1 on the surface of Hepa1-6 cells (mouse, UniProt Q9EP73 19-290); test: flow cytometry on Hepa1-6 cells (hGPC3- mPDL1+)
T1 construct: whole, on cells; also called mouse PD-L1
Protocol: (§1) A431, MC38-hEGFR, CHO-PD-L1, HepG2, and Hepa1-6 cells (DMEM medium containing 10% FBS, 1% double antibody) were cultured. After trypsinization, 2*10⁵ cells were taken and washed with pre-cooled PBS for 3 times. After blocked with PBS containing 2% FBS at 4° C., supernatant was discarded by centrifugation, 100 µL of the antibody fusion proteins with different concentrations diluted by the PBS solution containing 2% FBS were added and incubated at 4° C. for 1 h. The unbound antibody fusion protein was washed off with PBS containing 2% FBS, and secondary antibody Mouse Anti-Human IgG Fc-APC (Southern biotech) was added and incubated at 4° C. for 1 h. After being washed with PBS containing 2% FBS for three times, the fluorescence intensity was detected by flow cytometry.

[2] = biological target: T2, hPD-L1 on the cell surface (CHO-hPD-L1 cells; A431 cells) (human, UniProt Q9NZQ7 19-290); test: flow cytometry on A431 cells (hGPC3- hPDL1+)
T2 construct: whole, on cells; also called CHO-PD-L1
Protocol: as §1

[3] = biological target: T3, hPD-L1-hIGg1Fc (SinoBiological) (human, UniProt Q9NZQ7 19-238); test: ELISA, hPD-L1-hIgG1Fc coated
T3 construct: Bought reagent; also called soluble hPD-L1; human PD-L1; not shown: human IgG1 Fc
Protocol: (§2) hPD-L1-hIGg1Fc (SinoBiological) or mouse PD-L1-Fc (SinoBiological) (100 ng/well) was coated in 96-well plates, and incubated overnight at 4° C. […] After being washed with PBST containing 2% skimmed milk powder for 4-5 times, anti-human kappa light chain-HRP (Sigma A7146, 1:3000) secondary antibody was added and incubated at room temperature for 1 h, and then washed with PBST containing 2% skimmed milk powder for 4-5 times. Colordevelopment was performed by QuantaBlu fluorescent peroxidase substrate (Life technologies, Cat.15169) and read at 325 nm and 420 nm, or by TMB color reagent (BioLegend, Cat. 421101) and read at 650 nm (unterminated) or 450 nm (terminated). Data was analyzed by nonlinear regression using specific binding model with Prizm Graphpad software.

[4] = biological target: T4, mouse PD-L1-Fc (SinoBiological) (mouse, UniProt Q9EP73 19-238, limits assumed); test: ELISA, mouse PD-L1-Fc coated
T4 construct: Bought reagent; also called soluble mPD-L1; not shown: Fc
Protocol: as §2

[5] = biological target: T2, hPD-L1 on the cell surface (CHO-hPD-L1 …); test: flow cytometry on CHO-hPD-L1 cells (hEGFR- hPDL1+)
Protocol: as §1

[6] = biological target: T4, mouse PD-L1-Fc (SinoBiological); test: ELISA, mouse PD-L1-Fc coated; weaker than the PD-1m fusion
Protocol: as §2

[7] = biological target: T3, hPD-L1-hIGg1Fc (SinoBiological); test: ELISA, hPD-L1-hIgG1Fc coated; weaker than the PD-1m fusion
Protocol: as §2

T4 sequence (Q9EP73 19-238 limits assumed): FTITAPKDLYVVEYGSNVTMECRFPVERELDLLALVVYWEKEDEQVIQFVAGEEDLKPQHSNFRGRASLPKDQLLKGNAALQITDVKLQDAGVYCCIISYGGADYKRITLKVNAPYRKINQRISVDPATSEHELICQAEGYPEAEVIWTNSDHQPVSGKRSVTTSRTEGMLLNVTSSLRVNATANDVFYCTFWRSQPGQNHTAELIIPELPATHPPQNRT
T3 sequence (Q9NZQ7 19-238 limits assumed): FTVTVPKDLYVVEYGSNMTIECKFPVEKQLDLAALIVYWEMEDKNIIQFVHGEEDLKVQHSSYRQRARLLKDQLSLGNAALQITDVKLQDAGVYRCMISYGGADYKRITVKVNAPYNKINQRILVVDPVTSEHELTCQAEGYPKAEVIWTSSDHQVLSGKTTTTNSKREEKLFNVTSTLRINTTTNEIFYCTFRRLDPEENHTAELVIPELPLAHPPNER
T2 sequence (Q9NZQ7 19-290): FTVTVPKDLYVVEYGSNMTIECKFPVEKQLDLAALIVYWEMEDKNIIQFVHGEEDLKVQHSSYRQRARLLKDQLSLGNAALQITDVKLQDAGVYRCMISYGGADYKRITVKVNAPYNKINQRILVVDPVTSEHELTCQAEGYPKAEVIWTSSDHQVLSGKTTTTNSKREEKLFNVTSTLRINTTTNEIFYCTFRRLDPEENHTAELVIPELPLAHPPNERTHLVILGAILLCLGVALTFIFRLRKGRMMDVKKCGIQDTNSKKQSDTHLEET
T1 sequence (Q9EP73 19-290): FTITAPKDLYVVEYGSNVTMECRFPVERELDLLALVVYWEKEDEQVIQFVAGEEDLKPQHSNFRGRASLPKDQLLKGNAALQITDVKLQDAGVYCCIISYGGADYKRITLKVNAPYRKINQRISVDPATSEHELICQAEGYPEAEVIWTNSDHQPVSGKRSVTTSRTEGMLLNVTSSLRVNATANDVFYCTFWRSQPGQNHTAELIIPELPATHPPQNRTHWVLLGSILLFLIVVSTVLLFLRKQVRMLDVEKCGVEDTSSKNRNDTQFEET

binding result [1]: binds
binding result [2]: binds
binding result [3]: binds
binding result [4]: binds
B1: PD-1m-aGPC-3L (bispecific antibody, human IgG1, kappa)
heavy: QVQLVQSGAEVKKPGASVKVSCKASGYTFTDYEMHWVRQAPGQGLEWMGALDPKTGDTAYSQKFKGRVTLTADKSTSTAYMELSSLTSEDTAVYYCTRFYSYTYWGQGTLVTVSSASTKGPSVFPLAPSSKSTSGGTAALGCLVKDYFPEPVTVSWNSGALTSGVHTFPAVLQSSGLYSLSSVVTVPSSSLGTQTYICNVNHKPSNTKVDKKVEPKSCDKTHTCPPCPAPPVAGPSVFLFPPKPKDTLMISRTPEVTCVVVDVSHEDPEVKFNWYVDGVEVHNAKTKPREEQYNSTYRVVSVLTVLHQDWLNGKEYKCKVSNKGLPSSIEKTISKAKGQPREPQVYTLPPSRDELTKNQVSLTCLVKGFYPSDIAVEWESNGQPENNYKTTPPVLDSDGSFFLYSKLTVDKSRWQQGNVFSCSVMHEALHNHYTQKSLSLSPGK
light: LDSPDRPWNPPTFSPALLVVTEGDNATFTCSFSNTSESFVLNWYRMSPSNQTDKLAAFPEDRSQPGQDSRFRVTQLPNGRDFHMSVVRARRNDSGTYLCGAISLAPKVQIKESLRAELRVTERRAEVPTAHPSPSPRPAGQFQGGGGSGGGGSGGGGSGDVVMTQSPLSLPVTPGEPASISCRSSQSLVHSNRNTYLHWYLQKPGQSPQLLIYKVSNRFSGVPDRFSGSGSGTDFTLKISRVEAEDVGVYYCSQNTHVPPTFGQGTKLEIKRTVAAPSVFIFPPSDEQLKSGTASVVCLLNNFYPREAKVQWKVDNALQSGNSQESVTEQDSKDSTYSLSSTLTLSKADYEKHKVYACEVTHQGLSSPVTKSFNRGEC

binding result [5]: binds
binding result [3]: binds
binding result [4]: binds
B2: PD-1m-aEGFRL (bispecific antibody, human IgG1, kappa)
heavy: QVQLQESGPGLVKPSETLSLTCTVSGGSVSSGDYYWTWIRQSPGKGLEWIGHIYYSGNTNYNPSLKSRLTISIDTSKTQFSLKLSSVTAADTAIYYCVRDRVTGAFDIWGQGTMVTVSSASTKGPSVFPLAPSSKSTSGGTAALGCLVKDYFPEPVTVSWNSGALTSGVHTFPAVLQSSGLYSLSSVVTVPSSSLGTQTYICNVNHKPSNTKVDKKVEPKSCDKTHTCPPCPAPPVAGPSVFLFPPKPKDTLMISRTPEVTCVVVDVSHEDPEVKFNWYVDGVEVHNAKTKPREEQYNSTYRVVSVLTVLHQDWLNGKEYKCKVSNKGLPSSIEKTISKAKGQPREPQVYTLPPSRDELTKNQVSLTCLVKGFYPSDIAVEWESNGQPENNYKTTPPVLDSDGSFFLYSKLTVDKSRWQQGNVFSCSVMHEALHNHYTQKSLSLSPGK
light: not shown

binding result [6]: binds
binding result [7]: binds
B3: PD-1-aEGFRL (bispecific antibody)
heavy: B2 heavy
light: not shown
notes: Wild-type human PD-1 fused to the light chain of the anti-human EGFR antibody
